From patent publication US20070196376A1 (AstraZeneca / MedImmune, published 2007)
Values belong to the binder of their own block, whether it stands above or below them.

Key:
human insulin = molecular target: T1, human insulin (human, UniProt P01308 25-54; P01308 90-110, limits assumed); test: Biacore, mAb on CM5 chip, insulin injected
T1 construct: The mature hormone has an A and a B chain cut from the precursor; also called recombinant insulin; hu-Insulin

[1] = molecular target: T2, Recombinant human IGF-I (insulin-like growth factor-I) (human, UniProt P05019 49-118); test: limited antigen ELISA, supernatant 1:25
T2 construct: Bought; also called IGF1; IGF-1

[2] = molecular target: T3, Recombinant human IGF-II (insulin-like growth factor-II) (human, UniProt P01344 25-91); test: limited antigen ELISA, supernatant 1:25
T3 construct: Bought; also called IGF2; IGF-2

IGF-I/IGFBP-3 complex = molecular target: T4, IGF-I/IGFBP-3 complex (UniProt P05019 49-118); test: Biacore, mAb immobilised, preformed complex injected
T4 construct: Preformed non-covalent complex; IGF-I 99.97% complexed by IGFBP-3; also called complexed IGF-I/IGFBP-3

IGF-II/IGFBP-3 complex = molecular target: T5, IGF-II/IGFBP-3 complex (UniProt P01344 25-91); test: as above
T5 construct: Preformed non-covalent complex; IGF-II 99.97% complexed by IGFBP-3; also called complexed IGF-II/IGFBP-3

[3] = molecular target: T6, human insulin-like growth factor-I (IGF-I) (human, UniProt P05019 49-118); test: cell-based or functional assay
[4] = molecular target: T7, human insulin-like growth factor-II (IGF-II) (human, UniProt P01344 25-91); test: cell-based or functional assay
[5] = molecular target: T6, human insulin-like growth factor-I …; test: cell-based or functional assay; remark: listed apart in the source
[6] = molecular target: T7, human insulin-like growth factor-II …; test: cell-based or functional assay; remark: listed apart in the source
[7] = molecular target: T6, human insulin-like growth factor-I …; test: cell-based or functional assay; remark: listed apart in the source
[8] = molecular target: T7, human insulin-like growth factor-II …; test: cell-based or functional assay; remark: listed apart in the source
[9] = molecular target: T7, human insulin-like growth factor-II …; test: cell-based or functional assay; remark: listed apart in the source
[10] = molecular target: T6, human insulin-like growth factor-I …; test: Biacore low-resolution screen, mAb captured, IGF-I injected
[11] = molecular target: T7, human insulin-like growth factor-II …; test: Biacore low-resolution screen, mAb captured, IGF-II injected

B2: mAb 7.158.2 (antibody, V domains shown)
VH: QLQLQESGPGLVKPSETLSLTCTVSGGSIRSSSYYWGWIRQPPGKGLEWIGGIYYSGSTYYNPSLKSRVTMSVDTSKNQFSLKLSSVTAADTAVYYCARQRGHSSGWWYFDLWGRGTLVTVSS
VL: DIQMTQSPSSVSASVGDSVTITCRASQGISSYLAWYQQKPGKAPKLLIYAASSLQSGVPSRFSGNGSGTDFTLTISSLQPEDFATYYCQQANNFPFTFGPGTKVDIKR
notes: Kappa light chain (L5/JK3); also called 7.158.1; 7_158_1
- % MAX Activation, mean (n = 2), IGF-I pTYR of hIGF-IR in NIH3T3 cells [3]: 22.7%
- EC50 (nM), mean (n = 2), IGF-I pTYR of hIGF-IR in NIH3T3 cells [3]: 28.3 nM
- % MAX Activation, mean (n = 2), IGF-II pTYR of hIGF-IR in NIH3T3 cells [4]: 33.7%
- EC50 (nM), mean (n = 2), IGF-II pTYR of hIGF-IR in NIH3T3 cells [4]: 11.3 nM
- % Inhibition, mean (n = 3), IGF-I Proliferation Assay, NIH3T3/hIGF-IR cells [5]: 57.4%
- EC50 (nM), mean (n = 3), IGF-I Proliferation Assay, NIH3T3/hIGF-IR cells [5]: 42.8 nM
- % Inhibition, mean (n = 2), IGF-II Proliferation Assay, NIH3T3/hIGF-IR cells [6]: 54.6%
- EC50 (nM), mean (n = 2), IGF-II Proliferation Assay, NIH3T3/hIGF-IR cells [6]: 36 nM
- EC50 (nM), n = 1, IGF-I pTYR, BxPC3 cells [7]: 4.5 nM
- EC50 (nM), n = 2, IGF-I pTYR, BxPC3 cells [7]: 3.6 nM
- Max % Inhibition (333.3 nM), n = 1, IGF-I pTYR, BxPC3 cells [7]: 92.9%
- Max % Inhibition (333.3 nM), n = 2, IGF-I pTYR, BxPC3 cells [7]: 89.4%
- EC50 (nM), n = 2, IGF-II pTYR, BxPC3 cells [8]: 4.2 nM
- Max % Inhibition (133.3 nM), n = 2, IGF-II pTYR, BxPC3 cells [8]: 74%
- Max % Inhibition (333.3 nM), n = 1, IGF-II pTYR, BxPC3 cells [8]: 92.4%
- EC50 (nM), n = 1, IGF-II Proliferation, BxPC3 cells [9]: 0.0013 nM
- Max % Inhibition (133.3 nM), n = 2, IGF-II Proliferation, BxPC3 cells [9]: 148%
- Max % Inhibition (333.3 nM), n = 1, IGF-II Proliferation, BxPC3 cells [9]: 86.3%
- Kd [10]: 0.5 nM
- koff [10]: 0.0022 s⁻¹
- kon [10]: 4.4e+06 M⁻¹ s⁻¹
- Kd [11]: 0.197 nM
- koff [11]: 0.00067 s⁻¹
- kon [11]: 3.4e+06 M⁻¹ s⁻¹

B3: mAb 7.158.2 (antibody, V domains shown)
VH: QLQLQESGPGLVKPSETLSLTCTVSGGSIRSSSYYWGWIRQPPGKGLEWIGGIYYSGSTYYNPSLKSRVTMSVDTSKNQFSLKLSSVTAADTAVYYCARQRGHSSGWWYFDLWGRGTLVTVSS
VL: DIQMTQSPSSVSASVGDSVTITCRASQGISSYLAWYQQKPGKAPKLLIYAASSLQSGVPSRFSGNGSGTDFTLTISSLQPEDFATYYCQQANNFPFTFGPGTKVDIKR
notes: also called 7.158.1; 7_158_1
- LA OD, IGF1 2 ng/ml [1]: 1.71 OD 450 nm
- LA OD, IGF1 4 ng/ml [1]: 3 OD 450 nm
- LA OD, IGF2 2 ng/ml [2]: 1.42 OD 450 nm
- LA OD, IGF2 4 ng/ml [2]: 2.46 OD 450 nm

The remaining lines, values ahead:

- binding result (human insulin): no binding (tested: 502 nM)
- LA OD, IGF1 2 ng/ml [1]: 0.56 OD 450 nm
- LA OD, IGF1 4 ng/ml [1]: 0.98 OD 450 nm
- LA OD, IGF2 2 ng/ml [2]: 1.65 OD 450 nm
- LA OD, IGF2 4 ng/ml [2]: 2.47 OD 450 nm
- Kd (IGF-I/IGFBP-3 complex): > 1000 nM
- Kd (IGF-II/IGFBP-3 complex): > 1000 nM
B1: mAb 7.159.2 (ATCC Accession Number PTA-7424) (antibody, V domains shown)
VH: QVQLVQSGAEVKKPGASVKVSCKASGYTFTSYDINWVRQATGQGLEWMGWMNPNSGNTGYAQKFQGRVTMTRNTSISTAYMELSSLRSEDTAVYYCARDPYYYYYGMDVWGQGTTVTVSS
VL: QSVLTQPPSVSAAPGQKVTISCSGSSSNIENNHVSWYQQLPGTAPKLLIYDNNKRPSGIPDRFSGSKSGTSATLGITGLQTGDEADYYCETWDTSLSAGRVFGGGTKLTVLG
notes: Fully human, lambda light chain (V1-19/JL2); also called 7.159.1; 7_159_1

- binding result (human insulin): no binding (tested: 502 nM)
- LA OD, IGF1 2 ng/ml [1]: 0.7 OD 450 nm
- LA OD, IGF1 4 ng/ml [1]: 1.79 OD 450 nm
- LA OD, IGF2 2 ng/ml [2]: 1.4 OD 450 nm
- LA OD, IGF2 4 ng/ml [2]: 2.44 OD 450 nm
B4: mAb 7.234.2 (antibody, V domains shown)
VH: QLQLQESGPGLVKPSETLSLTCTVSGGSINSSSNYWGWIRQPPGKGLAWIGGIYYSGSTYYNPSLRSRVTMSVDTSKNQFSLKLSSVTAADTAVYYCARQRGHSSGWWYFDLWGRGTLVTVSS
VL: DIQMTQSPSSVSASVGDRVTITCRASRGISSWLAWYQQRPGKAPKLLIYTASSLQSGVPSRFSGSGSGTDFTLTISSLQPEDFATYYCQQANSFPFTFGPGTKVDIKR
notes: also called 7.234.1; 7_234_1
